Data taken from the supplement of paper PMC9170038.

System: MS2 coat protein
Assay: apparent KD of MS2 coat protein; designed switch direction (-1 OFF switch, 1 ON switch): -1; higher = weaker reporter binding
Method in brief: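 For each design, the apparent KD is the median over clusters of curves fitted to normalised cluster fluorescence. Clusters held RNA switches with common flanks, transcribed on Illumina chips by stalled E. coli RNA polymerase. These were titrated with SNAP-549-labelled MS2 coat protein, doubling from 0.7 or 1.5 nM to 3 µM, without input, with 200 uM small-molecule ligand, or with an oligonucleotide input.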

[1] = Eterna round: R95, input ligand: FMN 200 uM
[2] = Eterna round: R95, input ligand: microRNA oligo, concentration not stated
[3] = Eterna round: R95, input ligand: none
[4] = input ligand: microRNA oligo, concentration not stated

Sequence | apparent KD of MS2 coat protein (input ligand: FMN 200 uM) [nM] | apparent KD of MS2 coat protein (input ligand: none) [nM] | apparent KD of MS2 coat protein [1] [nM] | apparent KD of MS2 coat protein [2] [nM] | apparent KD of MS2 coat protein [3] [nM] | apparent KD of MS2 coat protein [4] [nM]
CCUUAUUCACAGGAUAUGCUCAUCUAAUGAUGAGCAGAAGGGUGGACAUGAGGAUCACCCAUGUUUAUCAAUGG [Omei Ex6 D5] (Eterna round: R97, puzzle: Exclusion 6) | 545 | 749 | – | – | – | –
CCUUGUGUUGAGGAUAUGCGCCGGCUCGCUGGCGCAGAAGGCGGCACAUGAGGAUCACCCAUGUCAGUUCGCGG [salish99_ex6_r004_013] (Eterna round: R97, puzzle: Exclusion 6) | 426 | 116 | – | – | – | –
CGAAGUAGAAACCGAUCCUACAUGAGGAUCACCCAUGUAGCAAGACGUGCACGCGAAGCUCGUCAGACUACCAGAAC [salish99_TOv1_r3_013] (puzzle: Sensor v3, turn-off variant 1) | – | – | 312 | 332 | 420 | –
CGAGCUAAUGUGAGGAUAUACCUAUGGAUACAUAGGUAGAAGGCACAUGAGGAUCACCCAUGUCCUAUAGCUCG [jl-bmx4-4.55] (Eterna round: R97, puzzle: Brourd's mod of Exclusion 4) | 241 | 304 | – | – | – | –
CGAGUGUAAGGAUAUUCGGCGCCAGGGAACGACCUGGCGUAGAAGAAGGUACAUGAGGAUCACCCAUGUGGUUA [Issobi] (puzzle: Exclusion 4) | – | – | – | 142 | – | –
CGAUAAAUGACAGGAUAUUACGCUAAUUGGGACCCUUAACCGACAUGAGGAUCACCCAUGUUUUAUAAGAAGGGUCGUUUGUCA [Eternabot solution 47] (Eterna round: R96, puzzle: Exclusion NG 2) | 21 | 13.2 | – | – | – | 11.2
CGAUAUUAUGUCAGGAUAUACAUUGCGAAAGCAAUGUAGAAGGGACAUGAGGAUCACCCAUGUCCUAACUAUCG [Omei A 2] (puzzle: Brourd's mod of Exclusion 4) | – | – | – | 12.9 | – | –
CGAUGCUCGAGUCGACAUGAGGAUCACCCAUGUAGAGUUAGCGAGGAUAUCGGAGACACAUAGUAUGAGAAGGCGCGAACCUGA [Ex NG3 #19] (Eterna round: R96, puzzle: Exclusion NG 3) | 36.2 | 16.7 | – | – | – | 12.3
CGAUGUGGAGUGAGGAUAUCGUGUUCGAAAGAACGUGAGAAGGCACAUGAGGAUCACCCAUGUGAUACAUGUCG [Omei Ex4B A16] (Eterna round: R97, puzzle: Brourd's mod of Exclusion 4) | 92.2 | 24.6 | – | – | – | –
CGCAGACAUGAGGAUCACCCAUGUCAGGAUAUACCUCAUAGCACCAGCUUAUGUAAGGGUAGAAGGGACUUGGA [Eternabot (L1) Solution 81] (Eterna round: R97, puzzle: Exclusion 1) | 86.1 | 56.8 | – | – | – | –
CGCCUCAGAGGAUAUACUACGGUUUCCUCAUGAUGCGGCCAACAUGAGGAUCACCCAUGUAGAAGGCUGAGAAA [EX2 A.5] (Eterna round: R97, puzzle: Exclusion 2) | 17.3 | 52.2 | – | – | – | –
CGCCUCAGCACAUGAGGAUCACCCAUGUACAAAAGUCCCAGGGAGGAUAUCUGCUGGUUGACUAGAGAGAAGGCCCAUACUAAC [Eternabot solution 45] (Eterna round: R96, puzzle: Exclusion NG 3) | 42.6 | 45 | – | – | – | 36.6
CGCCUGGGAGGAUAUCCAAUAUAUGACAUGAGGAUCACCCAUGUUUCCACUCGUACCUCCGGAGAAGGCCCGGCGC [Ex5 #30] (Eterna round: R97, puzzle: Exclusion 5) | 23.1 | 25.2 | – | – | – | –
CGCUAGUCAGGAUAUACGAACAUGUCAAAAGACGUGAAGGGACAUGAGGAUCACCCAUGUAGAAGGGACUAGCC [salish99_ex2_r3_011] (puzzle: Exclusion 2) | – | – | 111 | 21.3 | 25.8 | –
